# Measurements: patent publication US11110182B2, “Multifunctional RNA nanoparticles and methods for treating cancer and therapeutic resistant cancer” (University of Cincinnati, priority 2016, dated 2021)
# Test: Stability analyses (RNase A, 10% FBS DMEM, 8 M urea) by native PAGE
# Type: in vitro ADME
# Conditions: 37° C.
# Excerpt: FIG. 1A) The scheme of the pRNA-HER2apt-siMED1 (p-HER2-siMED1) (SEQ ID NO: 15) structure. FIG. 1B) The p1 and p2 strands of pRNA-HER2apt-siMED1_were transcribed using an in vitro RNA transcription system and separated in 8% denatured PAGE gel. FIG. 1C) pRNA-HER2apt-siMED1 nanoparticles were generated by annealing equal molar of strands p1 and p2, and subjected to 8% native PAGE gel electrophoresis. FIG. 1D) DLS assay of hydrodynamic size of pRNA-HER2apt-siMED1 nanoparticle. FIG. 1E) The Tm value of pRNA-HER2apt-siMED1 nanoparticle determined by TGGE assay. FIG. 1F) The atomic force microscopy (AFM) images of pRNA-HER2apt-siMED1 nanoparticles. FIG. 1G) The stability of control unmodified and 2′-F modified pRNA nanoparticles was examined by 8% native PAGE gel electrophoresis after RNase A, 10% FBS-supplemented DMEM medium and 8M urea treatments for the indicated time at 37° C.
# Cell culture. Human breast cancer luciferase-overexpressing BT474 and MDA-MB-231 cells were maintained in DMEM medium (Hyclone, Thermo Scientific) supplemented with 10% fetal bovine serum (FBS, Sigma) and 1% penicillin/streptomycin (Corning) at 37° C. in a humidified atmosphere with 5% CO2.^53 • Generation of pRNA nanoparticles. The two strands of pRNA were synthesized with the DNA templates, which were amplified with overlapping primers (Sigma) by PCR methods, using a T7 promoter-controlled in vitro RNA transcription system as previously described^33 (Table 1). All the CTP and UTP used for synthesis of the pRNA nanoparticles were 2′-fluoro modified, except the control unmodified pRNA nanoparticles used in the stability assays. […] The hydrodynamic diameter and Tm value of pRNA nanoparticles were determined using dynamic light scattering and TGGE assay, respectively, as previously described.^54 The AFM imaging of the pRNA nanoparticles was performed at the University of Nebraska Medical Center imaging facility as previously reported.^55 Briefly, the pRNA nanoparticles (5 μL) were deposited on APS modified mica ^56 for a total of 2 min of incubation time. […]
molecule,measurement,setting,value
"pRNA-HER2apt-siMED1: 3-WJ pRNA nanoparticle bearing a HER2-targeting RNA aptamer and two different MED1 siRNAs; strands p1 SEQ ID NO: 3, p2 SEQ ID NO: 4 (nucleic acid, 2'-F modification; third strand may lack entry; pRNA-HER2apt-siMED1, p1; pRNA-HER2apt-siMED1, p2) chain 1: GGACAGUGAAAGUGAGUCAAAGGAUCAAUCAUGGCCAAAGAUGUUACUUUGAGAGCCUU chain 2: GGCUCUCAAAGUAACAUCUAAGGCCAUGUGUAUGUGGGGGGAGGACGAUGCGGUCUGCUGUGCUUGAUAUGCCCCAGACGACUCGCCCCCCACAUACUUUGUUGAUCCAAUGACUCACUUUCACUGUCCUU",resistance to RNase A treatment,10 μg/mL RNase A,resistant
same,structure in 8M urea,8M urea,maintained their structure
same,stability in 10% FBS-supplemented DMEM medium,,highly stable
